Experiment: soluble on expression in E. coli; label from the status in PepcDB or PDB records

Which “soluble on expression in E. coli” value does the source give for “SNAMPLPKSLKYGDTIGIYSPSSPVTYTSPKRFERAKSYLLQKGFHILEGSLTGRYDYYRSGSIQERAKELNALIRNPNVSCIMSTIGGMNSNSLLPYIDYDAFQNNPKIMIGYSDATALLLGIYAKTGIPTFYGPALVPSFGEFEPFVDDTYKYFLETLLHDQALPYNIKQPLFWSDEFINWEEKTKEKELRPNNWISVTNGQATGRVIGGNLNTIQGIWGSPYMPCIQEGDILFIEDSSKDAATIERSFSFLKINGVFDKVSGIILGKHEQFDDCGTNRKPYEILLEVLQNQRIPLLADFDCCHTHPMITMPIGVQVKMDATNKTIHILEKWKI” here?
Its value is “soluble”.

For “MGSDKIHHHHHHMQLLGPTSNTFISQRLRLHYVDWGNADKPPLLLVHGGRDHCRSWDWTAEALREDWHIIALDHRGHGDSQWTQDGNYRTMDLVYDVAQLIHQLDLAPVTIVSHSWGANTSLRYAGLFPENVRKIVAIEGLFPTPEREALMKDVPFARRVREFIVEKRKAAGRLPRRYATLEDAYARMKGENPYLTDAQARHLTLHGINRNEDGTFSWKFDPHLNVDGAPYDISTDQRNELWGAITCPTLLLNGADSWAGNPDRNGMAQHFRNAQVVEFENAGHWLHHDQFDRFIATLRDFL”, which “soluble on expression in E. coli” value is on record?
The value was “not soluble”.

Which “soluble on expression in E. coli” value does the source give for “GAITKAVFDNEQGQAQRLQTSSSVEHGQMLFKDANLKTPSDVLNAFAKLDSKMVKSHAAELSQLAERAMTEVMLETDSGKNLKALIGDDAVKSLAVRVVKDYGGGVAAAQKNPEVRINQMQAVFDMEVMHLKAAQRHIEGLASTDLNQGVYAEGLPEDAFNKAGVTNNVERAAAWIINASNSKGNDAENITSLLKEYATNGKDLLNMDNLKELHARLVPNVERDYRGPNISGGTLPSSIGGEGMLKQHIEGFLKENPVADKDLGKHLFAGVIGYHGFTDGNGRMGRMLYAIAELRNDSFNPLAMNAENSLHGIK” here?
The value was “soluble”.

Which “soluble on expression in E. coli” value does the source give for “MKDDRYPSEWAQLALQKKQSVNWACERCGVQCLKPGEGKGLSTGDRYRLRMAVHHCDYDPGNNSPSNLKALCSPCHLYFHRRQRGNVIPGQLRLKFSFLILEHHHHHH” here?
Its value is “soluble”.

With “GMENIPFLRASTVPVIEYLDELKEIDASHIYTNYGPINQRFEQTIMSGFFQNRGAVTTVANATLGLMAAIQLKKRKKGKYALMPSFTFPATPLAAIWCGLEPYFIDISIDDWYMDKTVLWDKIEELKEEVAIVVPYATFGSWMNLEEYEELEKKGVPVVVDAAPGFGLMNGGMHYGQDFSGMIIYSFHATKPFGIGEGGLIYSKNEEDIQRIKRMGNFGFDTNRECTMMGFNCKMSEYAAAIGIATMKKWDDKLKERTRISEWYKQLLQSNGLMKKGWQLQKTEAVIQQFMPILCPEEVRNKQVIEDLKKQKIEARLYFSPSCHQQVLFRNYKSTDLTRTNKIAKRIVSLPLWEGMTKEIVEQIVICLGQKVVSADE” as the sequence, how does the “soluble on expression in E. coli” value read?
The value was “soluble”.

With “MGHHHHHHSHMATNAKPVYKRILLKLSGEALQGTEGFGIDASILDRMAQEIKELVELGIQVGVVIGGGNLFRGAGLAKAGMNRVVGDHMGMLATVMNGLAMRDALHRAYVNARLMSAIPLNGVCDSYSWAEAISLLRNNRVVILSAGTGNPFFTTDSAACLRGIEIEADVVLKATKVDGVFTADPAKDPTATMYEQLTYSEVLEKELKVMDLAAFTLARDHKLPIRVFNMNKPGALRRVVMGEKEGTLITE” as the sequence, how does the “soluble on expression in E. coli” value read?
The value was “soluble”.

Which “soluble on expression in E. coli” value does the source give for “MGSDKIHHHHHHMMELRYNPLTDEWVIVSAATQKRPVQPSKTECPICVGGLELPEEYDLVTFENRYPSLKKDPPPVNWKEKGPFRKEESRGVCEVVVYTSDHNTALPGMPLKQIEKLVEMWVDRTRDLSQHDFVKYIFIFENRGKEVGASLPHPHGQIYAFPFLPKRIEVKIGAMRKWYEEKRKCPICEVLESEGEERKVYETEHFLALVPFYARFPYEVHIYPKRHVSTLLEFSKEEKKEFAKVLKVVTAKYDKLFDQEFPYMMMFFQAPFNEEDVSHFFHFHVEFNPPKRDRDKLKWMASVETGTWAFINPVVPEEAARQLRETEVEI” here?
The value was “not soluble”.

Which “soluble on expression in E. coli” value does the source give for “MRSLLIALAATVALSLPARADEVTVAVTAIVEHPALDAARDGVKDALAAAGYKEGENLKFIYESAQGNPATAAQIARQFAGEAPSVIVPISTPSAQAVVSSTRDIPVVFTAVSDPLGAQLVKDMEKPGGNVTGLSDLSPVAEHVALIKEILPNVKTIGYLYNSGEANSVSLLAVLKEEAEKAGLSVIESAATKSAEVQGAARALVGRADAIYIPTDNTIISALEGAVAVAEESKLPLFTADTDSVSRGAVAALGFNYYDVGKQTGEVVVRVLKGENPGDIAVKVAAGTDLVINKGAATRMGVTLPESVVGRATRTIE” here?
The value was “not soluble”.

For “MTTFTHINSQGEANMVDVSAKAETVREARAEAIVTMSKETLSMIVEGKHHKGDVFATARIAGIQAAKRTWELIPLCHPLLLSKVEVNLEPLLETNQVRIQSLCKLTGKTGVEMEALTAASVAALTIYDMCKAVQKDIVIEHVRLLEKSGGKSGHFIAEEK”, which “soluble on expression in E. coli” value is on record?
Its value is “soluble”.

With “AKTKAAVSMEGFSWGNYINSNSFIAAPVTCFKHAPMGTCWGDISENVRVEVPNTDCSLPTKVFWIAGIVKLAGYNALLRYEGFENDSGLDFWCNICGSDIHPVGWCAASGKPLVPPRTIQHKYTNWKAFLVKRLTGAKTLPPDFSQKVSESMQYPFKPCMRVEVVDKRHLCRTRVAVVESVIGGRLRLVYEESEDRTDDFWCHMHSPLIHHIGWSRSIGHRFKRSDITKKQDGHFDTPPHLFAKVKEVDQSGEWFKEGMKLEAIDPLNLSTICVATIRKVLADGFLMIGIDGSEAADGSDWFCYHATSPSIFPVGFCEINMIELTPPRGYTKLPFKWFDYLRETGSIAAPVKLFNKDVPNHGFRVGMKLEAVDLMEPRLICVATVTRIIHRLLRIHFDGWEEEYDQWVDCESPDLYPVGWCQLTGYQLQPPASQSSR” as the sequence, how does the “soluble on expression in E. coli” value read?
The value was “soluble”.

For “MPSSPAERYAQALASGQFMPDEAQAQAVQELERVWQELLSRYKASKKAFRRFRRQTSPKGVYMWGGVGRGKTWLMDQFYDSIPFRRKTRMHFHHFMQHVHRELNKLSGQRNPLDLVADQIYKDAVIICFDEFFVSNVTDAMILSDLFQKLFNRGVTLVATSNIAPDGLYKNGIHRDRFLPTIELVQKNCTILNVDAGVDYRLRVLKQAQLFKHPLTDDAKIWMSQRFSAITRSQIVSQQPITINNRVVETLGHTEDVLWCEFSELCLKPRSPADFIEIANIYNTVLVSNVPHLTDYLSEGTRRFIYLVDEFYDRGVKLLLTSQDSIIEIYEGEKLAFEIERTRSRLLEMQSDEYLHSLEHHHHHH”, which “soluble on expression in E. coli” value is on record?
The value was “soluble”.

Which “soluble on expression in E. coli” value does the source give for “MALLQISEPGLTAAPHQRRLAAGIDLGTTNSLVATVRSGKAQTLADEQLADEQLIADEQLIAGEQLIAGQQLIAGQQLINEKQRDLLPSVVHYHPQGIDVGWKARNLAALDPVNTISSVKRMMGRSLADIVQRYPNLPYQFHASENGLPMIQTARGLVNPVQVSAEILKTLAQRAQAALAGELDGVVITVPAYFDDAQRQGTKDAARLAGLHVLRLLNEPTAAAIAYGLDSGQEGVIAVYDLGGGTFDISILRLSRGVFEVLATGGDSALGGDDFDHLLADWLREQAGVATRDDHGIQRQLLDTAIAAKIALSEAETAVVSVAGWQGEVTREQLESLIAPQVKRTLMACRRALKDAGVTADEILEVVMVGGSTRVPLVREQVGQFFGRTPLTSIDPDKVVAIGAAIQADILVGNKPDSDMLLLDVIPLSLGLETMGGLVEKVIPRNTTIPAARAQEFTTFKDGQSAMMIHVLQGERELVKDCRSLARFTLRGLPPLPAGGAHIRVTFQVDADGLLSVTAMEKSTGVEASIQVKPSYGLSDDEIANMIKDSMANAQSDITARKLAEQRVDAARVLESLQGALAEDAALLSEQESAAIAQAVALLQQQMQGSDPQAIEAAIKALDAQTQDFAARRMDASIRRALAGHSVDEV” here?
The value was “soluble”.

For “MAHHHHHHMCDTANEADGKKLNKKAKSISVVKFKDKEKKKFVSLSSKEETSVQDLPLGCPVCYVPLTVDFNLLNQVEEQDEEEMIVCKEETTYINKSFINRINTNEYRSSTKIEAVFEEVKNVIHTTDDKCLIFSQYCSMLDLIEYHLKKHNIICSKLLGYMPMVSRNNILYNFNEDKHLRVLLISLKAGGEGLNLQVANRIFIVDPWWNPAAELQAIQRAHRIGQTKTVYATRFIIENTVEEKIVQLQNKKQLVFDCTIGDSGNAMQKLTKEDLAFLFHA”, which “soluble on expression in E. coli” value is on record?
The value was “not soluble”.

With “MIPISVLVTNAGTVSFHIKGEYNRDRPSKFSDVFRPVVTWNLTRKCNLKCLHCYINASPEGEDGLTTEEALGLIDEMAEMKIPLIIMSGGEPLMRRDFFELASYARSKGIKLALSTNGTLISESVAKRLKELDFSYVGISLDSYDPEFHDKFRGLNGAFNMTVKGIGNAINVGLNVGLRFTITAKNIHQVDEYMKLALKLGVKRITFYHLSASGRGRELREWMYTLEEYVSFINKMIDYAIKLSGKIEIETTLGQFDGVYIAKKLARNEEELEKYLKFVENSGGCGRKMISIYPNGDVYPCQFIDFYKLGNVREKPLKEIIKNIPDLFINTDKYLKGRYCDKCEYKSACKGGDRARAYYWNEDIYGDDPLCPLKTLHI” as the sequence, how does the “soluble on expression in E. coli” value read?
Its value is “not soluble”.

For “MGSDKIHHHHHHENLYFQGMQVIKQKLTATCAQLTGYLHQPDTNAHQTNLPAIIIVPGGSYTHIPVAQAESLAMAFAGHGYQAFYLEYTLLTDQQPLGLAPVLDLGRAVNLLRQHAAEWHIDPQQITPAGFSVGGHIVALYNDYWATRVATELNVTPAMLKPNNVVLGYPVISPLLGFPKDDATLATWTPTPNELAADQHVNSDNQPTFIWTTADDPIVPATNTLAYATALATAKIPYELHVFKHGPHGLALANAQTAWKPDANQPHVAHWLTLALEWLADNR”, which “soluble on expression in E. coli” value is on record?
Its value is “soluble”.

With “MGSDKIHHHHHHMNDNAERRYRRPSYRITLDEQDITPRINGRLIRLRLRSQRGLEADQLDLTLSDHDGALALPRRGVSLRVAYGWQDDGLIDKGLFTVDEVQHSGTPDQITIRARSADMRGRLPGKRSRSWHDITVGEIIDTIAKRHTLEPVVGDTVRGIRIGHIDQTEESDLNFLTRLGERFDAVATVKAARLLFTQAGEALTASGLAMPSVTLTRRDGDRHRYSATDRDTYTGVIAYWNDKANAKRQRVIAGSDEDAKELRPTYATEADALDAAKAEWRRVQRGEATFKITLAYGRADILPESPLTASGFKPDIDATPWLVTEVEDSLDDNGFGTRVQCEVRGGAAET” as the sequence, how does the “soluble on expression in E. coli” value read?
Its value is “not soluble”.

Which “soluble on expression in E. coli” value does the source give for “MTITRQDAWTQDEDLLLAEVVLRHIREGGTQLSAFEEVGRALTRTAAACGFRWNSYVRKQYQSGIELAKKQRKELRKQIGVHSVNMPNSMKQTASASSEGKRDLSIQDVIQFLEQFKETPSAQEFQLEREKLKEQIQSLQKELEDLRSENQTLRNQLEMTEEDYKALIDIMDRARKMVVSKEDGRMKKAAQETLEHHHHHH” here?
The value was “not soluble”.

For “MLTIERHEQIVKLVQEKEVVTIHDLVEYTNASESTIRRDLTELEKQKKLKRIHGGASVLKKRREEPTMAEKTVKNNHEKKKIAELAASFVEDGDCLFLDAGTTTYELIPFIKTKKIVVVTNGLDSISALLEAGVETYVIGGTVKQGTRAFVGRHAIQSLQTFRFDKAFLGINGVHLEDGFTTPDPQEAYVKETALSLSREAFMLVDHSKFGETTFATVAPIHAATIVTSSQVEQQVIQAYETQTAVKVVTLLEHHHHHH”, which “soluble on expression in E. coli” value is on record?
The value was “soluble”.

With “HHHHHHMPIQVLPPQLANQIAAGEVVERPASVVKELVENSLDAGATRIDIDIERGGAKLIRIRDNGCGIKKDELALALARHATSKIASLDDLEAIISLGFRGEALASISSVSRLTLTSRTAEQQEAWQAYAEGRDMNVTVKPAAHPVGTTLEVLDLFYNTPARRKFLRTEKTEFNHIDEIIRRIALARFDVTINLSHNGKIVRQYRAVPEGGQKERRLGAICGTAFLEQALAIEWQHGDLTLRGWVADPNHTTPALAEIQYCYVNGRMMRDRLINHAIRQACEDKLGADQQPAFVLYLEIDPHQVDVNVHPAKHEVRFHQSRLVHDFIYQGVLSVLQQQLETPLPLDDEPQPAPR” as the sequence, how does the “soluble on expression in E. coli” value read?
Its value is “soluble”.

From the DeepSol protein solubility set
